Assay results from the Human Domainome abundance scans (Beltran et al. 2025).
± gives the uncertainty stated by the source.

B1: RUN and FYVE domain-containing protein 1, residues 639 to 698; numbered along this chain, Q96T51 (parent)
chain: WLKDDEATHCRQCEKEFSISRRKHHCRNCGHIFCNTCSSNELALPSYPKPVRVCDSCHTL

Variants of: B1
Assay: abundance fitness (aPCA) (normalised: wild type 0, dead -1); higher = more abundant; growth selection in yeast, the domain comes from the species named
Conditions: Homo sapiens

Variant | abundance fitness
WLKDDEATHCRQCEKEFSISRRKHHCRNCGHIFCNTCVSNELALPSYPKPVRVCDSCHTL | -0.008 ± 0.057
WLKDDEATHCRQCEKEFSISRRKHHCRNCGHIFCNTCHSNELALPSYPKPVRVCDSCHTL | -0.545 ± 0.066
WLKDDEATHCRQCEKEFSISRRKHHCRNCGHIFCNTCQSNELALPSYPKPVRVCDSCHTL | -0.432 ± 0.13
WLKDDEATHCRQCEKEFSISRRKHHCRNCGHIFCNTCFSNELALPSYPKPVRVCDSCHTL | -0.594 ± 0.07
WLKDDEATHCRQCEKEFSISRRKHHCRNCGHIFCNTCPSNELALPSYPKPVRVCDSCHTL | -0.727 ± 0.1
WLKDDEATHCRQCEKEFSISRRKHHCRNCGHIFCNTCWSNELALPSYPKPVRVCDSCHTL | -0.282 ± 0.1
WLKDDEATHCRQCEKEFSISRRKHHCRNCGHIFCNTCKSNELALPSYPKPVRVCDSCHTL | -0.589 ± 0.1
WLKDDEATHCRQCEKEFSISRRKHHCRNCGHIFCNTCGSNELALPSYPKPVRVCDSCHTL | -0.067 ± 0.053
WLKDDEATHCRQCEKEFSISRRKHHCRNCGHIFCNTCYSNELALPSYPKPVRVCDSCHTL | -0.633 ± 0.065
WLKDDEATHCRQCEKEFSISRRKHHCRNCGHIFCNTCISNELALPSYPKPVRVCDSCHTL | -0.38 ± 0.056
WLKDDEATHCRQCEKEFSISRRKHHCRNCGHIFCNTCMSNELALPSYPKPVRVCDSCHTL | -0.425 ± 0.11
WLKDDEATHCRQCEKEFSISRRKHHCRNCGHIFCNTCTSNELALPSYPKPVRVCDSCHTL | -0.057 ± 0.047
WLKDDEATHCRQCEKEFSISRRKHHCRNCGHIFCNTCRSNELALPSYPKPVRVCDSCHTL | -0.122 ± 0.088
WLKDDEATHCRQCEKEFSISRRKHHCRNCGHIFCNTCSSMELALPSYPKPVRVCDSCHTL | -0.021 ± 0.047
WLKDDEATHCRQCEKEFSISRRKHHCRNCGHIFCNTCSSSELALPSYPKPVRVCDSCHTL | -0.004 ± 0.035
WLKDDEATHCRQCEKEFSISRRKHHCRNCGHIFCNTCSSEELALPSYPKPVRVCDSCHTL | -0.172 ± 0.042
WLKDDEATHCRQCEKEFSISRRKHHCRNCGHIFCNTCSSTELALPSYPKPVRVCDSCHTL | -0.08 ± 0.046
WLKDDEATHCRQCEKEFSISRRKHHCRNCGHIFCNTCSSWELALPSYPKPVRVCDSCHTL | -0.85 ± 0.078
WLKDDEATHCRQCEKEFSISRRKHHCRNCGHIFCNTCSSDELALPSYPKPVRVCDSCHTL | -0.382 ± 0.059
WLKDDEATHCRQCEKEFSISRRKHHCRNCGHIFCNTCSSLELALPSYPKPVRVCDSCHTL | -0.424 ± 0.046
WLKDDEATHCRQCEKEFSISRRKHHCRNCGHIFCNTCSSRELALPSYPKPVRVCDSCHTL | 0.153 ± 0.034
WLKDDEATHCRQCEKEFSISRRKHHCRNCGHIFCNTCSSKELALPSYPKPVRVCDSCHTL | 0.078 ± 0.056
WLKDDEATHCRQCEKEFSISRRKHHCRNCGHIFCNTCSSAELALPSYPKPVRVCDSCHTL | -0.163 ± 0.041

Variant | abundance fitness
WLKDDEATHCRQCEKEFSISRRKHHCRNCGHIFCNTCSSCELALPSYPKPVRVCDSCHTL | -0.933 ± 0.14
WLKDDEATHCRQCEKEFSISRRKHHCRNCGHIFCNTCSSIELALPSYPKPVRVCDSCHTL | -0.223 ± 0.2
WLKDDEATHCRQCEKEFSISRRKHHCRNCGHIFCNTCSSQELALPSYPKPVRVCDSCHTL | -0.001 ± 0.053
WLKDDEATHCRQCEKEFSISRRKHHCRNCGHIFCNTCSSPELALPSYPKPVRVCDSCHTL | -0.387 ± 0.059
WLKDDEATHCRQCEKEFSISRRKHHCRNCGHIFCNTCSSHELALPSYPKPVRVCDSCHTL | -0.067 ± 0.1
WLKDDEATHCRQCEKEFSISRRKHHCRNCGHIFCNTCSSGELALPSYPKPVRVCDSCHTL | -0.03 ± 0.037
WLKDDEATHCRQCEKEFSISRRKHHCRNCGHIFCNTCSLNELALPSYPKPVRVCDSCHTL | -0.102 ± 0.039
WLKDDEATHCRQCEKEFSISRRKHHCRNCGHIFCNTCSENELALPSYPKPVRVCDSCHTL | 0.079 ± 0.055
WLKDDEATHCRQCEKEFSISRRKHHCRNCGHIFCNTCSRNELALPSYPKPVRVCDSCHTL | -0.011 ± 0.039
WLKDDEATHCRQCEKEFSISRRKHHCRNCGHIFCNTCSCNELALPSYPKPVRVCDSCHTL | -1.14 ± 0.23
WLKDDEATHCRQCEKEFSISRRKHHCRNCGHIFCNTCSFNELALPSYPKPVRVCDSCHTL | -0.305 ± 0.11
WLKDDEATHCRQCEKEFSISRRKHHCRNCGHIFCNTCSTNELALPSYPKPVRVCDSCHTL | 0.084 ± 0.039
WLKDDEATHCRQCEKEFSISRRKHHCRNCGHIFCNTCSNNELALPSYPKPVRVCDSCHTL | -0.036 ± 0.071
WLKDDEATHCRQCEKEFSISRRKHHCRNCGHIFCNTCSANELALPSYPKPVRVCDSCHTL | 0.14 ± 0.041
WLKDDEATHCRQCEKEFSISRRKHHCRNCGHIFCNTCSWNELALPSYPKPVRVCDSCHTL | -0.657 ± 0.079
WLKDDEATHCRQCEKEFSISRRKHHCRNCGHIFCNTCSPNELALPSYPKPVRVCDSCHTL | -0.251 ± 0.061
WLKDDEATHCRQCEKEFSISRRKHHCRNCGHIFCNTCSHNELALPSYPKPVRVCDSCHTL | -0.421 ± 0.09
WLKDDEATHCRQCEKEFSISRRKHHCRNCGHIFCNTCSYNELALPSYPKPVRVCDSCHTL | -0.428 ± 0.069
WLKDDEATHCRQCEKEFSISRRKHHCRNCGHIFCNTCSDNELALPSYPKPVRVCDSCHTL | 0.128 ± 0.07
WLKDDEATHCRQCEKEFSISRRKHHCRNCGHIFCNTCSGNELALPSYPKPVRVCDSCHTL | 0.185 ± 0.034
WLKDDEATHCRQCEKEFSISRRKHHCRNCGHIFCNTCSINELALPSYPKPVRVCDSCHTL | -0.229 ± 0.067
WLKDDEATHCRQCEKEFSISRRKHHCRNCGHIFCNTCSQNELALPSYPKPVRVCDSCHTL | 0.091 ± 0.051
